According to article PMC314469, “Protein Interaction Networks by Proteome Peptide Scanning” (PLoS Biology, 2004):

T1: Boi1 SH3 (BOI1_YEAST), P38041
T1 chain: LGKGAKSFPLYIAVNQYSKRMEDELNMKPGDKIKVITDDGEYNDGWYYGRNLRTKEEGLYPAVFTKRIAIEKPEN

T2: Boi2 SH3 (BOI2_YEAST), P39969
T2 chain: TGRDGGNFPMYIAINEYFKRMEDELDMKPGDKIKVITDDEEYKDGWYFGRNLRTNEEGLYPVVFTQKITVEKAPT

T3: Myo5 SH3 (MYO5_YEAST), Q04439
T3 chain: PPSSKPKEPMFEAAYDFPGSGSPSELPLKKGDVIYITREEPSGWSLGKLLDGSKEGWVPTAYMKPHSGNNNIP

T4: Rvs167 SH3 (RV167_YEAST), P39743
T4 chain: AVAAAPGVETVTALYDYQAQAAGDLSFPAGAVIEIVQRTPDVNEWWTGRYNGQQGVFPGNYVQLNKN

T5: Yfr024 SH3 (LSB3_YEAST), P43603
T5 chain: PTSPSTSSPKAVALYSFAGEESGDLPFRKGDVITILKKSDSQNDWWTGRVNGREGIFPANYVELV

T6: Yhr016c SH3 (YSC84_YEAST), P32793
T6 chain: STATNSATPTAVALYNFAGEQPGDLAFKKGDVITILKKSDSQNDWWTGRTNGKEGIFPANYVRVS

B1: YOR178C 9-22 (peptide)
chain: LSPAKARPSFPHND
B2: YOL006C 477-490 (peptide)
chain: LTIFKRPPKQPGHQ
B3: YKL027W 383-396 (peptide)
chain: LTLTKWDPSKPISL
B4: YBR083W 422-435 (peptide)
chain: LSKVRGRPMYPRPA
B5: YNL143C 64-77 (peptide)
chain: LSYLKDLPFVPFLF
B6: YCL027W 415-428 (peptide)
chain: LSRSKPLPLTPNSK
B7: YER047C 13-26 (peptide)
chain: LTKIRRRPQQPLTD

How the values were obtained:
Test in all cases: SPOT array
[1] = molecular target: T1, Boi1 SH3 (BOI1_YEAST), P38041
[2] = molecular target: T2, Boi2 SH3 (BOI2_YEAST), P39969
[3] = molecular target: T3, Myo5 SH3 (MYO5_YEAST), Q04439
[4] = molecular target: T4, Rvs167 SH3 (RV167_YEAST), P39743
[5] = molecular target: Sho1 SH3 (SHO1_YEAST), P40073
[6] = molecular target: T5, Yfr024 SH3 (LSB3_YEAST), P43603
[7] = molecular target: T6, Yhr016c SH3 (YSC84_YEAST), P32793

Chain of Sho1 SH3 (SHO1_YEAST), P40073 (P40073 295-366): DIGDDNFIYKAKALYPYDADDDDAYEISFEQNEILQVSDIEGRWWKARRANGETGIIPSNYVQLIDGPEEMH

Row | Binder | normalised SPOT signal, Boehringer light units (BLU); mean over the file's lines of this peptide [1] | normalised SPOT signal, Boehringer light units (BLU); mean over the file's lines of this peptide [2] | normalised SPOT signal, Boehringer light units (BLU); mean over the file's lines of this peptide [3] | normalised SPOT signal, Boehringer light units (BLU); mean over the file's lines of this peptide [4] | normalised SPOT signal, Boehringer light units (BLU); mean over the file's lines of this peptide [5] | normalised SPOT signal, Boehringer light units (BLU); mean over the file's lines of this peptide [6] | normalised SPOT signal, Boehringer light units (BLU); mean over the file's lines of this peptide [7]
1 | B1 | 807 | 31.9 | 213 | 174 | 53.3 | 2350 | 47.2
2 | B2 | 135 | 37.3 | 703 | 160 | 93.6 | 1030 | 730
3 | B3 | 190 | 104 | 231 | 12.4 | 27 | 65.5 | 21.1
4 | B4 | 479 | 37 | 752 | 92.6 | 82.7 | 342 | 51.9
5 | B5 | 62.5 | 6.6 | 213 | 44.3 | 22900 | 125 | 18.8
6 | B6 | 642 | 86.5 | 324 | 394 | 55900 | 837 | 105
7 | B7 | 3090 | 84.8 | 393 | 388 | 117 | 937 | 71.9
